Our source for the self-cleavage values is the RNAGym collection of RNA variant scans (doi:10.7554/elife.80360).

Sequences and labels used below:
B1: CPEB3 Ribozyme (parent)
chain: GGGGGCCACAGCAGAAGCGUUCACGUCGCGGCCCCUGUCAGAUUCUGGUGAAUCUGCGAAUUCUGCUGU

Variants of B1 are the subject of this data set. Kind of data set: self-cleavage, relative activity (ratio to wild type); higher = more cleavage; co-transcriptional.
In the case of GGGGGCCACAGCAGAAGCGUUCACGUCGCGGCCCCUGUCAUACUCUGGUGAAUCUGCGAAUUCUGCUGU, the self-cleavage stood at 0.357. Turning to GGGGGCCACAGCAGAAGCGUUCACGUCGCGGCCCCUGUCAUAAUCUGGUGAAUCUGCGAAUUCUGCUGU, the self-cleavage came out at 0.3.

With GGGGGCCACAGCAGAAGCGUUCACGUCGCGGCCCCUGUCAUAGUCUGGUGAAUCUGCGAAUUCUGCUGU, the self-cleavage stood at 0.267. As to GGGGGCCACAGCAGAAGCGUUCACGUCGCGGCCCCUGUCACAUUCUGGUGACUCUGCGAAUUCUGCUGU, the self-cleavage was 0.332. On to GGGGGCCACAGCAGAAGCGUUCACGUCGCGGCCCCUGUCACAUUCUGGUGAAUCUGCGGAUUCUGCUGU, for which the self-cleavage was 0.845.

As for GGGGGCCACAGCAGAAGCGUUCACGUCGCGGCCCCUGUCACAUUCUGGUGAAUCUGCGCAUUCUGCUGU, the self-cleavage is 0.225. Consider GGGGGCCACAGCAGAAGCGUUCACGUCGCGGCCCCUGUCAUAUUGUGGUGAAUCUGCGAAUUCUGCUGU, for which the self-cleavage was 0.47. Next, GGGGGCCACAGCAGAAGCGUUCACGUCGCGGCCCCUGUCAUAUUAUGGUGAAUCUGCGAAUUCUGCUGU: 0.422. In the case of GGGGGCCACAGCAGAAGCGUUCACGUCGCGGCCCCUGUCACAUUCUGGUGAAUCUGCGAAUUCUGCUCU, the self-cleavage came to 0.902. Take GGGGGCCACAGCAGAAGCGUUCACGUCGCGGCCCCUGUCACAUUCUGGUGAAUCUGCGAAUUCUGCUAU: the self-cleavage was determined as 0.927. Take GGGGGCCACAGCAGAAGCGUUCACGUCGCGGCCCCUGUCACAUUCUGGUGAAUCUGCGAAUUCUGCUUU: the self-cleavage is 0.933.

On to GGGGGCCACAGCAGAAGCGUUCACGUCGCGGCCCCUGUCACAUUCUGGUGAAUCUGCGACUUCUGCUGU, for which the self-cleavage came out at 0.262. Regarding GGGGGCCACAGCAGAAGCGUUCACGUCGCGGCCCCUGUCACAUUCUGGUGAAUCUGCGAGUUCUGCUGU, the self-cleavage was 0.304.

Regarding GGGGGCCACAGCAGAAGCGUUCACGUCGCGGCCCCUGUCACAUUCUGGUGAAUCUGCGAUUUCUGCUGU, the self-cleavage is 0.366. GGGGGCCACAGCAGAAGCGUUCACGUCGCGGCCCCUGUCAUAUUCUGGUCAAUCUGCGAAUUCUGCUGU: the self-cleavage was found to be 0.54. GGGGGCCACAGCAGAAGCGUUCACGUCGCGGCCCCUGUCACAUUCUGGCGAAUCUGCGAAUUCUGCUGU: the self-cleavage is 0.871.

GGGGGCCACAGCAGAAGCGUUCACGUCGCGGCCCCUGUCACAUUCUGGAGAAUCUGCGAAUUCUGCUGU: the self-cleavage turned out to be 0.988.

In the case of GGGGGCCACAGCAGAAGCGUUCACGUCGCGGCCCCUGUCAUAUUCUGGUGAAUCUGCUAAUUCUGCUGU, the self-cleavage was determined as 0.939.

Consider GGGGGCCACAGCAGAAGCGUUCACGUCGCGGCCCCUGUCAUAUUCUGGUGAAUCUGCAAAUUCUGCUGU, for which the self-cleavage amounted to 0.935. Take GGGGGCCACAGCAGAAGCGUUCACGUCGCGGCCCCUGUCAUAUUCUGGUGAAUCUGCCAAUUCUGCUGU: the self-cleavage worked out at 0.94. GGGGGCCACAGCAGAAGCGUUCACGUCGCGGCCCCUGUCAUAUUCUGGUGAAUCUGCGAUUUCUGCUGU: the self-cleavage worked out at 0.374.

In the case of GGGGGCCACAGCAGAAGCGUUCACGUCGCGGCCCCUGUCAUAUUCUGGUGAAUCUGCGAGUUCUGCUGU, the self-cleavage was determined as 0.612.

As to GGGGGCCACAGCAGAAGCGUUCACGUCGCGGCCCCUGUCACAUUCUGGUGAAUCUGCGAAUUCUGCUGG, the self-cleavage worked out at 0.959. In the case of GGGGGCCACAGCAGAAGCGUUCACGUCGCGGCCCCUGUCACAUUCUGGUGAAUCUGCGAAUUCUGCUGC, the self-cleavage came to 1.01. On to GGGGGCCACAGCAGAAGCGUUCACGUCGCGGCCCCUGUCAUAUUCUGGUGAAUCUACGAAUUCUGCUGU, for which the self-cleavage was 0.581. Next, GGGGGCCACAGCAGAAGCGUUCACGUCGCGGCCCCUGUCAUAUUCUGGUGUAUCUGCGAAUUCUGCUGU: 0.609.

In the case of GGGGGCCACAGCAGAAGCGUUCACGUCGCGGCCCCUGUCAUAUUCUGGUGGAUCUGCGAAUUCUGCUGU, the self-cleavage came out at 0.837.

For the variant GGGGGCCACAGCAGAAGCGUUCACGUCGCGGCCCCUGUCACAUUGUGGUGAAUCUGCGAAUUCUGCUGU, the self-cleavage came to 0.38. Regarding GGGGGCCACAGCAGAAGCGUUCACGUCGCGGCCCCUGUCACAUUAUGGUGAAUCUGCGAAUUCUGCUGU, the self-cleavage is 0.34. On to GGGGGCCACAGCAGAAGCGUUCACGUCGCGGCCCCUGUCACAUUUUGGUGAAUCUGCGAAUUCUGCUGU, for which the self-cleavage came out at 0.501. Take GGGGGCCACAGCAGAAGCGUUCACGUCGCGGCCCCUGUCACAUUCUGGUGAAUCUGCGAACUCUGCUGU: the self-cleavage came to 0.241.

As for GGGGGCCACAGCAGAAGCGUUCACGUCGCGGCCCCUGUCACAUUCUGGUGAAUCUGCGAAGUCUGCUGU, the self-cleavage amounted to 0.345. Turning to GGGGGCCACAGCAGAAGCGUUCACGUCGCGGCCCCUGUCACAAUCUGGUGAAUCUGCGAAUUCUGCUGU, the self-cleavage was 0.31.

For the variant GGGGGCCACAGCAGAAGCGUUCACGUCGCGGCCCCUGUCACACUCUGGUGAAUCUGCGAAUUCUGCUGU, the self-cleavage worked out at 0.486. Under GGGGGCCACAGCAGAAGCGUUCACGUCGCGGCCCCUGUCACAGUCUGGUGAAUCUGCGAAUUCUGCUGU stands 0.25; under GGGGGCCACAGCAGAAGCGUUCACGUCGCGGCCCCUGUCAUAUUCUUGUGAAUCUGCGAAUUCUGCUGU, 0.999. GGGGGCCACAGCAGAAGCGUUCACGUCGCGGCCCCUGUCAUAUUCUCGUGAAUCUGCGAAUUCUGCUGU: the self-cleavage stood at 0.967.

Take GGGGGCCACAGCAGAAGCGUUCACGUCGCGGCCCCUGUCAUAUUCUGGUGAAUCUGCGAAUUUUGCUGU: the self-cleavage came out at 0.691. As to GGGGGCCACAGCAGAAGCGUUCACGUCGCGGCCCCUGUCACAUUCUGGUGAAUCUGCGAAUUCUGGUGU, the self-cleavage is 0.369.
